Source: paper PMC10641069, “Intra- and inter-molecular regulation by intrinsically-disordered regions governs PUF protein RNA binding” (Nature Communications, 2023)
Where two headings read alike, the source gives them in different places.

Experiments:
[1] = target: T1, FBF-2 RBD (Caenorhabditis elegans, UniProt Q09312); details: reported previously, cited from earlier work
T1 construct: The FBF-2 RBD protein (residue 164-575) was purified as described previously; His6-SUMO (N, cleaved yes); made in house; host or cells: E. coli BL21-CodonPlus (DE3)-RIL (host inferred: b50 says the procedure was otherwise the same as for RBD + CT)
T1 sequence (Q09312 whole entry, looked up): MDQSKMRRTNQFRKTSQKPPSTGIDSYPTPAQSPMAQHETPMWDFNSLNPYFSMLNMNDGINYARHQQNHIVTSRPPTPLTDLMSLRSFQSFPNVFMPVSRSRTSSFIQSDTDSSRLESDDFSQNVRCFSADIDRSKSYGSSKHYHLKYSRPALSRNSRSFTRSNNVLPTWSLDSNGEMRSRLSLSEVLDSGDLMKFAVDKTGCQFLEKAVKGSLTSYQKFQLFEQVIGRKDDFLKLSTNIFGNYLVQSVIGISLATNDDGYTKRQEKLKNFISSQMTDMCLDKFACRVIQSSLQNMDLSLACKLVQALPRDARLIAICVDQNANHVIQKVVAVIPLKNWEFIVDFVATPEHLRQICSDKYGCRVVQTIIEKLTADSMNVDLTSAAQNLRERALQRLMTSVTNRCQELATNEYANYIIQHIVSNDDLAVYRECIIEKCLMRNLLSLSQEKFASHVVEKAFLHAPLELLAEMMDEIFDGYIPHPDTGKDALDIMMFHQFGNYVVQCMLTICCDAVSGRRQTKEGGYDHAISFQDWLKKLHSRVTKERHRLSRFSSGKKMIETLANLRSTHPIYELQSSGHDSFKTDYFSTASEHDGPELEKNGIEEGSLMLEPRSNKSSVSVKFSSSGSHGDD
From the text: Given that the core residues of three distinct PIMs—FBF-2 CT, LST-1 A, and LST-1 B—all bind to the same site of FBF-2, we hypothesized that the intramolecular FBF-2 CT binding could compete with LST-1 A and LST-1 B binding. To assess that idea, we investigated how the CT affects the protein interaction affinities of the FBF-2 RBD to LST-1 A and LST-1 B, using isothermal titration calorimetry (ITC, Supplementary Table 3). No RNA was included in these experiments. We first measured the binding affinity of an isolated CT peptide and the FBF-2 RBD (no CT), by titrating the peptide, FBF-2^601–632, ... || Fig. 2 The FBF-2 CT competes with partner proteins for binding to the RBD. Representative isothermal titration calorimetry thermograms (top, differential power [DP] vs time) and corresponding titration curve-fitting graphs (bottom) are shown for interaction between a FBF-2 RBD and FBF-2 CT, c FBF-2 RBD + CT and LST-1 A, d FBF-2 RBD + CT and LST-1 B, e FBF-2 RBD and FBF-2 CT L610A, f FBF-2 RBD + CT L610A and LST-1 A, and g FBF-2 RBD + CT L610A and LST-1 B. Data points on the curve-fitting graphs are shown as open circles. b Previously reported mean Kd from two independent replicates with simila ... || We next compared the protein interaction affinities of LST-1 A or LST-1 B with either FBF-2 RBD + CT or RBD alone (Fig. 2c–g, Supplementary Table 3). For these experiments, we titrated the LST-1 peptide into an ITC cell containing either RBD + CT or RBD.

[2] = system: gld-1 FBEa RNA; assay: Electrophoretic mobility shift assay (EMSA), RNA binding; set-up: species or system C. elegans; details: LST-1 B 50 μM

## LST-1 B: LST-1 B peptide, residues 67–98, expressed in E. coli (SSSPQQRSGLRSQKLHLTYIEKNKRVRAMIPQ; left off: His6-SUMO, N-terminal, cleaved)
[1]; replicate 1
  -T∆S: 7.7 kcal/mol
  ∆G: -9.85 kcal/mol
  ∆H: -17.5 kcal/mol
[1]; replicate 2
  -T∆S: 7.17 kcal/mol
  ∆G: -9.87 kcal/mol
  ∆H: -17 kcal/mol
[2]; of FBF-2 RBD + CT L610A
  effect on RNA-binding affinity: little to no effect
[2]; of FBF-2 RBD + CT Y479A
  effect on RNA-binding affinity: no effect
